Results on one substance are retold here after paper doi:10.1101/2023.12.24.573241.

Test [1] deals with DmUNC-104^bris (full-length DmUNC-104 R562H, C-terminal sfGFP and 2xStrep-tag II) (Drosophila melanogaster) (UniProt A1ZAJ2). The test is described as follows: mass photometry.
Test [2] addresses Taxol-stabilized microtubules polymerized from pig brain tubulin, labeled with biotin and AZDye647 (pig) (UniProt P02550). The test is described as follows: TIRF single-molecule motility assay.
UniProt P02550, sequence (P02550 whole entry): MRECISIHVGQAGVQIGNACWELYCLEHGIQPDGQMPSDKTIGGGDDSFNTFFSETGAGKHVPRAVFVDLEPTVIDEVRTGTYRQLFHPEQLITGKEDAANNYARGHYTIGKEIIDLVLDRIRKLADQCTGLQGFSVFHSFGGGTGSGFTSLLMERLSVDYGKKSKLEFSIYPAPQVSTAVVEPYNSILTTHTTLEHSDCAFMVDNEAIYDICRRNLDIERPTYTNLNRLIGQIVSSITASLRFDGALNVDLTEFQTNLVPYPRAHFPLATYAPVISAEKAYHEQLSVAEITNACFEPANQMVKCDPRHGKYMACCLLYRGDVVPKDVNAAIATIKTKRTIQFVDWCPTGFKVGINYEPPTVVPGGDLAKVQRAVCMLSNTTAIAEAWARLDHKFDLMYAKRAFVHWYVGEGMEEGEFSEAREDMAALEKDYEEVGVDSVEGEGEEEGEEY

Turning to “DmUNC-104^bris (full-length DmUNC-104 R562H, C-terminal sfGFP and 2xStrep-tag II) (from UniProt A1ZAJ2 1-1670) (natural protein)”, in test [1], the percent of particles as dimer amounted to 71% and the stoichiometry N (in general, a count of units in the complex or per binding partner) was determined as 2. In addition, in test [2], the landing rate (median) (molecules/µm/s) was 0.034 and the landing rate of motile motors (median) (molecules/µm/s) was 0.015.
